Test: yeast display, Sf9 membrane polyspecificity reagent, FACS + sequencing; frameworks hold sequencing errors
How it was run: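 Genes from sorted yeast were amplified by colony PCR, read by MiSeq 2 × 250 sequencing and filtered on CDR length. These cells carried a synthetic nanobody library in Saccharomyces cerevisiae BJ5465 and were sorted by FACS into low and high (top ~1%) gates on anti-HA and streptavidin fluorescence. Polyreactivity is labelled according to the gate of origin.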
With “QVQLVESGGGLVQAVGSLRLSCAASGSIFRRNVMGWYRPAPGKERELVATLTVGGSTYYADSVKGRFTISRDNAKNTVYLQMNSLIPEDTAVYYCAAYSPYLRSWYDYWGQGTQGTVSS” the “polyreactivity (PSR sort gate)” value was “high polyreactivity”. For “QVQLVESGGGVVQAGGSLRISCAASGSTFGFNAMGWYRQAPGKERELVAAINNSGDSTYYADSVKGRFTISRDNAKNTVYLQMNSLKPEDTAVYYCAAPYLGRYYKNGYWGQGTQVTVSS”, the “polyreactivity (PSR sort gate)” value was “low polyreactivity”. For “QVQLVESGGGLVQAGGSLLLSCASSGFIFTKYTMGWYRLAPGKERELVAAITGRGTSTYADSVKGRFSMSRDNAKNTVYLQMNSLIPEDTAVYYCAAVGWFADFLFSDINGYYWGQGTQVTVSA”, the “polyreactivity (PSR sort gate)” value was “low polyreactivity”. In the case of “QVQLVESGGGLVQAGGSLRISCAASGLTSYSYAMGWYRQAPGKERELVAAITVNGGRTYYADSVKGRFTISRDNAKNTVYLQMNSLKPEDTAVYYCAAREVTGRPRSYYYWGQGTQVTVSS”, the “polyreactivity (PSR sort gate)” value is reported as “low polyreactivity”. With “QVQLVESCGGLVQAGGSLRLSCAASGFIFYDYDMGWYRQAPGKQRELVAAITYSGASTYYADSVKGRFTISRDNAKNTVYLQMNSLKPEDTAVFYCAAVKSRYADAVDYYYWGQGTQVTVSS” the “polyreactivity (PSR sort gate)” value was “low polyreactivity”. With “QVQLVESGGGLVQAGGSLRLRCAASGSTFYIYAMGWYRPAPGKERELVARISGSGGSTYYADSVKGRFTISRDNAKNTVYLQMNSLKPEDTSVYSCAAQRRVVGRHGLSLIRYDYWGQGTQVTVSS” the “polyreactivity (PSR sort gate)” value was “low polyreactivity”. For “QVQLVESGGGLVQAGGSLRLSCAASVFIFGLYAMGWYRQAPGKERELVAAISRSGGSTYYADSVKGRFTISRDNEKNTVYLQMNSLKPEDTAVYYCAKRASPRQAGPIYDSWGQGTQVTVSS”, the “polyreactivity (PSR sort gate)” value was “high polyreactivity”. For “QVQLVESGGGLVQAGGSIRLSCAASGNTFVLYTMGWYRQAPGKERELVAAISGRGTNTYYADSVKGRFTISRDNAKNTVYLQMNSLKPEDTAVYYCAARYKTLVTDYEYWGQGTQVTVSS”, the “polyreactivity (PSR sort gate)” value was “high polyreactivity”. For “QVQLVESGGGLVQAGGSLRLRCAASGGIFGRYAMGWNRQAPGKERELVAAISSRGGSTYYADSVKGRFTISRDNAKNTVYLQMNSLKPEDTAVYYCNALWVSYYTFRMDYWGQGTQVTVSS”, the “polyreactivity (PSR sort gate)” value was “high polyreactivity”. For “QVQLVESGGGLVQAGGSLRLSCAASGFTFAGYAMGWYRQAPGKERELVAAISYSGGRTYYADSVKGRFTISRDNEKNTVYLQMNSLKPEDTAVYYCNADPAYYRGYYRQGYDYWGQGTQVTVSS”, the “polyreactivity (PSR sort gate)” value was “high polyreactivity”. With “QVQLVESGGGLVQAGGSLRLICAASGRIFAYYAMGWYRHAPGKERELVAAISGSGRTYYADSVKGRFTISRDNAKYTVYLQMNSLKPEDTAVYYCNNVYSFYYTEGYDYWGQVTQVTVSS” the “polyreactivity (PSR sort gate)” value was “high polyreactivity”. For “QVQLVESGGGLVQAGGSLRLSCAASGRIFFYNAMGWYRQAPGKERELVATIRGGGSTNYADSVKGRFTISRDNAKNTVYLQMNSLKPEDTAVYYCAARRGSYSVTEYWGQGTQVTVSS”, the “polyreactivity (PSR sort gate)” value was “high polyreactivity”. For “QVQLVESGGGLVQAGGSLRLSCAASGRTFWHNAMGWYRQEPGKERELVAAITIRGGRTYYADSVKGRFTISRDNAKNTVYLQMNSLKPEDTAVYYCAAPPFVKMDYWGQGTQVTVSS”, the “polyreactivity (PSR sort gate)” value was “high polyreactivity”. With “QVQLVESGGGLVQAGGSLRLSCAASGIIFGRYAMGWYRQAPGKERELVATSSRGGGRTYYADSVKGRFTISRDNAKYTVYLLMNSLIPEDTAVYYCASYFYRGGLDSWGQGTQVTVSS” the “polyreactivity (PSR sort gate)” value was “high polyreactivity”. With “QVQLVESGGGLVQAGGSLRLSCAASGITFRVNAMGWYRQAPGKERELVAAISQIGGSTYYADSVKGRFTISRDNAKNTVYLQMNSLKPEDTAVYYCAARRRWYNYNYWGQGTQVTVSS” the “polyreactivity (PSR sort gate)” value was “high polyreactivity”. With “QVQLVESGGGLVQAGGSLRLSCAASGSTFGTYARGWYRQAPGKERELVAAISWSGGSTYYADSVKGRFTISRDNAKNTVYLQMNSLKPEDTAVYYCNAKTSIGTWVGDDYWGQGTQVTVSS” the “polyreactivity (PSR sort gate)” value was “low polyreactivity”. In the case of “QVQLVESGRGLVHAGGSIRLSCAASGRIFGLYAIGWYRQAPGKERELVASINSRGGSTNYAVSVKGRFTISRDNAMNTVYLQMNSLKPEDTAVYYCNARIVYAYQRYYWGQGTHVTVSS”, the “polyreactivity (PSR sort gate)” value is reported as “high polyreactivity”. With “QVQLVESGGGLVQAGGSLRLSCAASGRTIGVYAMGWYRQAPGKERELVAAISWSGGTTYYADSVKGRFTISRDNAKYTVYLQMNSLKPEDTAVYYCAADSYTEVDYWGQGTQVTVSS” the “polyreactivity (PSR sort gate)” value was “low polyreactivity”. With “QVQLVESGGGLVQAGGSLRLSCAASGITLTPYAMGWYRQAPGKERELVAAISWSGGSTYYADSVKGRFTISRDNAKNTVYLQMNSLKPEDTAVYYCAAGPGQYTVYAGTIGEYDYWGQGTQVTVSS” the “polyreactivity (PSR sort gate)” value was “high polyreactivity”. In the case of “QVQLVESGGGLVQAGGSLRLSCAASGSIFGRNAMGWYRQEPGKERELVARISYIGGSTYYADSVKGRFTISRDNAKNTVYLQMNSLKPEDTAVYYCAKRYGFRYKRMDYWGQGTQVTVSS”, the “polyreactivity (PSR sort gate)” value is reported as “low polyreactivity”. In the case of “QVQLVESGGGLVQAGGSLRLSCAASGITFILYAMGWYRQAPGKERELVASITSGGSTDYADSVKGRFTISRDNAKTTVYLQMNSLKPEDTAVYYCAADGRTYHHHDGGWYRYDYWGQGTQVTVSS”, the “polyreactivity (PSR sort gate)” value is reported as “low polyreactivity”.

— the nanobody polyreactivity screen of Harvey et al. (2022)
